Here are results for 1 molecule from patent US20250281630A1 (TORAY INDUSTRIES, published 2025).

For assay [1], the target named is T1, human CAPRIN-1 on the cell membrane surface of human cancer cells (human, UniProt Q14444 2-709).
T1 construct: whole, on cells
T1 sequence (looked up): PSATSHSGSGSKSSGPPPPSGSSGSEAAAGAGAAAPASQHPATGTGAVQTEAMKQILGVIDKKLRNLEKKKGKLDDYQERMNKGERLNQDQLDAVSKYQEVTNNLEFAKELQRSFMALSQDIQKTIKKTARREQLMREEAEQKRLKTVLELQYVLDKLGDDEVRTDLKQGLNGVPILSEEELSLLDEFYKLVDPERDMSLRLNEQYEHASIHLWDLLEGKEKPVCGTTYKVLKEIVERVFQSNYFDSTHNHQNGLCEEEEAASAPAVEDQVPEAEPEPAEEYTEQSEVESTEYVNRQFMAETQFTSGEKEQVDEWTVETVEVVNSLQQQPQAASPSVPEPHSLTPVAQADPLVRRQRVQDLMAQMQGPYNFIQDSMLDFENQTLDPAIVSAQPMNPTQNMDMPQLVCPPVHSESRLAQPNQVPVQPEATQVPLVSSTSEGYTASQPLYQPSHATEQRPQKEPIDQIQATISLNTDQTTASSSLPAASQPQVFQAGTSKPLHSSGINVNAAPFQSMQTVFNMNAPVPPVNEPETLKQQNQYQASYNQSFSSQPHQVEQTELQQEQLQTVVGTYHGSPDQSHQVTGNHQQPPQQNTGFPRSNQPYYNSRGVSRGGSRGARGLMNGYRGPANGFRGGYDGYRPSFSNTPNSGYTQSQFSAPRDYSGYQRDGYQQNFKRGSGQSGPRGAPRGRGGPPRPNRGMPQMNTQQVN
The assay can be described thus: flow cytometry, BT474 cells. As to the method:
The tube was left at 4° C. for 1 hour. After washing with PBS, Alexa 488-labeled anti-rabbit IgG (H+L) diluted 100-fold with PBS(-) containing 0.5% FBS (0.5% FBS-PBS(-)) was added thereto, and the tube was left at 4° C. for 1 hour. After washing with 0.5% FBS-PBS(-), the cells were reacted with BD Horizon Fixable Viability Stain (FVS) Reagents (FVS450, Becton, Dickinson and Company) to stain dead cells, and the fluorescence intensity was then measured using FACSFortessa™ (Becton, Dickinson and Company).

The target in assay [2] is T2, mouse CAPRIN-1 on mouse cancer cells (mouse, UniProt Q60865 2-707).
T2 construct: whole, on cells
T2 sequence (looked up): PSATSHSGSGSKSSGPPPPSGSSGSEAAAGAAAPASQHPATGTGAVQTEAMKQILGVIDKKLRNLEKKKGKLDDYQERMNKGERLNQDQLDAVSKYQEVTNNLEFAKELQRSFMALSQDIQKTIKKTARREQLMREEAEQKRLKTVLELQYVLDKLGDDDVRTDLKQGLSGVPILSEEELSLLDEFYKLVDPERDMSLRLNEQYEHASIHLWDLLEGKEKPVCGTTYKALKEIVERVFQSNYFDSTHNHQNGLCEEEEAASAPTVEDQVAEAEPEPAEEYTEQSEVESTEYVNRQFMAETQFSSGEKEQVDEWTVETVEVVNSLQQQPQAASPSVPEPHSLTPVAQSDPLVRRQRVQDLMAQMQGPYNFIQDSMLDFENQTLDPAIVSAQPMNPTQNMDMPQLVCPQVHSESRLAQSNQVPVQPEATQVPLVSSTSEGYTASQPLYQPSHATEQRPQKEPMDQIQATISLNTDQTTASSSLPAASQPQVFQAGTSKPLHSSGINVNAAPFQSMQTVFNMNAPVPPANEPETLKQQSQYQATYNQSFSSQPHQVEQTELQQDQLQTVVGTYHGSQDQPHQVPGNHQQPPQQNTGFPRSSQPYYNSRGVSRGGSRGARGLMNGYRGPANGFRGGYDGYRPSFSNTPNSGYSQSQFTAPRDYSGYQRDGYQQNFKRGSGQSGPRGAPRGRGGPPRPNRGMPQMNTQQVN
The assay is described as follows: flow cytometry, Renca and 4T1 cells.

B1: Conjugate 124 (antibody, V domains shown)
VH: EVQLVESGGGLVQPGGSLRLSCAASGFSLSSHSLGWVRQAPGKGLEWIGDIRSGGSAYYANWAKGRFTISRDNSKNTLYLQMNSLRAEDTAVYYCTRTNGPSDLTNRLDLWGQGTLVTVSS
VL: EQVLTQSPSSLSASVGDRVTINCQASQSLYNNENLAWFQQKPGKVPKRLIYGASTLASGVSSRFSGSGSGTEFTLTISNLQPEDFAIYYCLGEFSCGSADCFAFGGGTKVEIK
notes: human IgG1 constant regions; also called conjugate with MMAE using humanized antibody #38
B1: the binding result in assay [1] and in assay [2] was “binds” throughout.
